This is an account of results in PMC4488300.

Usually stoichiometry N stands for a count of units in the complex or per binding partner.

The assay addresses Francisella tularensis ssp. holarctica macrophage locus protein A (MglA) (F. tularensis ssp. holarctica) (UniProt Q5NFG1). Briefly: cross-linking + SEC.

With “Francisella tularensis ssp. holarctica macrophage locus protein A (MglA) (from UniProt Q5NFG1 1-205) (natural protein)”, the stoichiometry N amounted to 2.
